“Also recorded” adds a separate entry of the source.
What was measured:
MDA MB 231 cells [1] = assay: Cell migration, modified Boyden chamber method; assay type: cell-based; conditions: transfected 24 hr, 18 hr migration, FIG. 3A
Protocol: MDA MB 231 cells were transfected with pCK-flag (control), FOG2-wt (wild type) and FOG2 mutants having modified zinc finger domain (FOG2-ZF-5-m and FOG2-ZF-6-m). The cell migration was then analyzed using the modified Boyden chamber method (Albini A et al., Cancer Res 1987 47:3239-45). Following the transfection for 24 hr, MDA MB 231 cells (1×10^5) were suspended in a serum-free medium and seeded in triplicate in the upper part of BD chamber ([…] pore size). The lower part was filled with the serum-free medium. Following the incubation at 37° C. for 18 hr, non-migrating cells positioned at the upper surface of filters were cleaned with a cotton swab. The migrating cells passing through the lower surface of filters were fixed with 70% ethanol and treated with the Giemsa staining solution for 50 min. Then, the cells were rinsed with water and observed under a microscope. The cell migration rate was determined by counting the number of cells present in randomly-selected six sections and the migration range was expressed as the average number of cells per a microscopic field.
MDA MB 231 cells were incubated with 4 μM Mock (control, DMSO), 4 μM ZF-5-wt-24, 4 μM ZF-5-m-24, 4 μM ZF-5-wt-20 or 4 μM ZF-3-wt-21. After treatment, the cell migration was analyzed using the modified Boyden chamber method (Albini A et al., Cancer Res 1987 47:3239-45). After 2 days of treatment, MDA MB 231 cells (1×10^5) were suspended in the serum free medium and seeded in triplicate in the upper part of BD chamber ([…] pore size). The lower part was filled with the serum free medium. Following the incubation at 37° C. for 18 hr, non-migrating cells positioned at the upper surface of filters were cleaned with the cotton swab. The migrating cells passing through the lower side surface of filters were fixed with 70% ethanol and stained using the Giemsa stain method. The cell migration rate was determined by counting the number of cells present in randomly-selected six sections and the migration range was expressed as the average number of cells per a microscopic field.

Akt = Akt phosphorylation by Western blot in transfected Hep3B cells after IGF-1 stimulation; assay type: cell-based; conditions: FIG. 1D
Protocol: Hep3B cells were transfected with FOG2 mutants having modified zinc finger domain to measure the effect on the Akt signaling by FOG2-ZF-5m. The Akt activity was measured by analyzed Akt phosphorylation.
Hep3B cells were transfected with pCK-flag (control), FOG2-wt (wild type) and FOG2 mutants having modified zinc finger domain (FOG2-ZF-5-m and FOG2-ZF-6-m) and stimulated with IGF-1. The expression of Akt (Cell signaling Technology, USA), pAkt (Cell signaling Technology, USA) and GAPDH(Santa cruz, USA) were measured by Western blot analysis.

PI3K = PI3K (Homo sapiens, UniProt P27986); assay: PI3K activity in Hep3B cells transfected with FOG2 constructs (p85α immunoprecipitation, 32P-ATP/PIP2 kinase assay); assay type: cell-based; design: The cell lysates were immunoprecipitated with p85α (sc-1637, Santa Cruz) and Protein G-Sepharose beads; endogenous in cells; host or cells: Hep3B
Chain of PI3K (P27986 whole entry, the tested form may be a part): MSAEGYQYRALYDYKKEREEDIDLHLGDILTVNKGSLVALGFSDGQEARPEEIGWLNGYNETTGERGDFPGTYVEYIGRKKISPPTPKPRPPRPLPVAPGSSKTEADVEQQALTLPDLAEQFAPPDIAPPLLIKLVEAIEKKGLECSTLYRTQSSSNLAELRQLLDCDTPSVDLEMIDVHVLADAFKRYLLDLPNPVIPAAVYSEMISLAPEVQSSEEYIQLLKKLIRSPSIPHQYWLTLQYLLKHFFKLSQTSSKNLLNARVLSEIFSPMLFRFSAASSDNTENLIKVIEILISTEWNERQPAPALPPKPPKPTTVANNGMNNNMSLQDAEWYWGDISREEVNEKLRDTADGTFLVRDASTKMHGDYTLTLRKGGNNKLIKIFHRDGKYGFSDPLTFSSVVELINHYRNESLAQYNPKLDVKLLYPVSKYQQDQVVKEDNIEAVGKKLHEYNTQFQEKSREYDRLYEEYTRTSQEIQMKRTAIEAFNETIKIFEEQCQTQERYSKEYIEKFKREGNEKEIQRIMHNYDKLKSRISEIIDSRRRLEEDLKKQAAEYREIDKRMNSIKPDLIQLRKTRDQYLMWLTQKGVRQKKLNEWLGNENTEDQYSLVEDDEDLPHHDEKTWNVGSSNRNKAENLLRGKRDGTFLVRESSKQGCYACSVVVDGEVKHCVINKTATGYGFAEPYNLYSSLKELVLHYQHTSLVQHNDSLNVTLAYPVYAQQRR
Protocol: To investigate the inhibitory effect to PI3K activity by FOG2 zinc finger domain, PI3K activity was analyzed using FOG2 mutants having modified zinc finger domain. Specially, it is known that IGF signaling pathway plays an important role in cancer and the increased IGF-1 level enhances the risk of various cancers in many researches.
Accordingly, the PI3K activity was increased by incubating Hep3B cells with IGF-1 and then measured when the cells were incubated with peptides having mutated FOG2 zinc finger domain.
After Hep3B cells incubation, 100 ng/ml IGF-1 (Insulin like growth factor-1) was added to the cells and incubated for 30 min.
Hep3B cells were transfected with pCK-flag (control), FOG2-wt (wild type) and FOG2 mutants having modified zinc finger domain (FOG2-ZF-5-m and FOG2-ZF-6-m). Two days later, the lysates were obtained using a lysis buffer (20 mM Hepes (pH7.4), 100 mM NaCl, 20 mM KAc, 10 mM MgCl2, 10 mM ZnCl2, 1 mM Na3VO4, 1% NPO4). The cell lysates were immunoprecipitated with p85α (sc-1637, Santa Cruz) and Protein G-Sepharose beads using the same method above. After binding to beads, the lysates were washed 2 times with the lysis buffer and one time with the wash buffer (0.1 M Tris-HCl (pH 7.4), 5 mM LiCl, and 0.1 mM Na3VO4).
For measurement of PI3K activity, 10 μl of sonicated PIP2 (1 μg/μl, Calbiochem), 10 μl of 100 mM MgCl2 and 1 μl of [-^32P]ATP (500 μCi/ml) were added to the kinase buffer (10 mM Tris-HCl (pH 7.4), 150 mM NaCl, 1 mM Na3VO4, 10 mM ZnCl2) and incubated at 37° C. for 30 min. After incubation, 20 μl of 6 N HCl was added to stop the reaction and PIP2 was extracted by treatment with 200 μl of methanol:chloroform (1:1) solution. The amount of radioactively labeled PIP2 in the extract was measured using a scintillator counter.

MDA MB 231 cells [2] = assay: Cell proliferation MTT assay; assay type: cell-based; conditions: transfected with 100 ng DNA, 3 days post-transfection, FIG. 6A
Protocol: Because the PI3K activation is critical in cell growth, the cell proliferation was analyzed to investigate the inhibitory effect of the FOG2 zinc finger domain using the MTT assay.
MDA MB 231 cells were seeded in a 96-well plate, and transfected with 100 ng DNA of pCKflag, FOG2-wt, FOG2-ZF-5-m or FOG2-ZF-6-m using Lipofectamine 2000. On 3 days post-transfection, the MTT assay was performed.
MDA MB 231 cells (2×10^3 cells) were seeded in a 96-well plate and treated with 4 μM each peptide for 3 days. After the treatment, 50 μl of MTT solution (2 mg/ml) was added to each well, incubated at 37° C. for 1 hr. Then, 150 μl of DMSO was added to each well and the absorbance value of each well was measured at 590 nm using a microplate reader.

p85α = target: T1, p85α (Homo sapiens, UniProt P27986); assay: Interaction of FOG2 zinc finger domain with p85α (α-Flag immunoprecipitation, Western blot); assay type: binding; conditions: Hep3B cells, 2 days after transfection, FIG. 1B
T1 construct: subject to the Western blot analysis using p85α (sc-1637, Santa Cruz); endogenous in cells; host or cells: Hep3B
T1 sequence (P27986 whole entry, the tested form may be a part): as above
Text: To reveal the region of FOG2 interacting with p85α as a subunit of PI3K, we numbered eight (8) zinc finger domains of FOG2. Then, mutated FOG2 with altered zinc finger domain (FOG-ZF-5-m and FOG-ZF-6-m) was manufactured by mutating two domains (known to interact with p85α) positioned at 413-789th amino acid residues of FOG2.
Hep3B cells were transfected with pCK-flag (control), FOG2-wt (wild type) and FOG2 mutants having modified the zinc finger domain (FOG2-ZF-5-m and FOG2-ZF-6-m). On 2 days after transfection, the lysates were obtained using the lysis buffer (20 mM Hepes (pH7.4), 100 mM NaCl, 20 mM KAc, 10 mM MgCl2, […], 1 mM Na3VO4, 5 mM NaF, 1% NPO4). The cell lysates were immunoprecipitated with the α-Flag (Sigma, A2220) and subject to the Western blot analysis using p85α (sc-1637, Santa Cruz) and α-Flag antibody (Sigma, F1804).

B1: FOG2-ZF-5-m: Mutated FOG2 with altered the fifth zinc finger domain (two histidine residues substituted with alanine) (protein)
chain: MSRRKQSKPRQIKRPLEDAIEDEEEECPSEETDIISKGDFPLEESFSTEFGPENLSCEEVEYFCNKGDDEGIQETAESDGDTQSEKPGQPGVETDDWDGPGELEVFQKDGERKIQSRQQLPVGTTWGPFPGKMDLNNNSLKTKAQVPMVLTAGPKWLLDVTWQGVEDNKNNCIVYSKGGQLWCTTTKAISEGEELIAFVVDFDSRLQAASQMTLTEGMYPARLLDSIQLLPQQAAMASILPTAIVNKDIFPCKSCGIWYRSERNLQAHLMYYCSGRQREAAPVSEENEDSAHQISSLCPFPQCTKSFSNARALEMHLNSHSGVKMEEFLPPGASLKCTVCSYTADSVINFHQHLFSHLTQAAFRCNHCHFGFQTQRELLQHQELHVPSGKLPRESDMEHSPSATEDSLQPATDLLTRSELPQSQKAMQTKDASSDTELDKCEKKTQLFLTNQRPEIQPTTNKQSFSYTKIKSEPSSPRLASSPVQPNIGPSFPVGPFLSQFSFPQDITMVPQASEILAKMSELVHRRLRHGSSSYPPVIYSPLMPKGATCFECNITFNNLDNYLVAKKAYCSSRWQQMAKSPEFPSVSEKMPEALSPNTGQTSINLLNPAAHSADPENPLLQTSCINSSTVLDLIGPNGKGHDKDFSTQTKKLSTSSNNDDKINGKPVDVKNPSVPLVDGESDPNKTTCEACNITFSRHETYMVHKQYYCATRHDPPLKRSASNKVPAMQRTMRTRKRRKMYEMCLPEQEQRPPLVQQRFLDVANLNNPCTSTQEPTEGLGECYHPRCDIFPGIVSKHLETSLTINKCVPVSKCDTTHSSVSCLEMDVPIDLSKKCLSQSERTTTSPKRLLDYHECTVCKISFNKVENYLAHKQNFCPVTAHQRNDLGQLDGKVFPNPESERNSPDVSYERSIIKCEKNGNLKQPSPNGNLFSSHLATLQGLKVFSEAAQLIATKEENRHLFLPQCLYPGAIKKAKGADQLSPYYGIKPSDYISGSLVIHNTDIEQSRNAENESPKGQASSNGCAALKKDSLPLLPKNRGMVIVNGGLKQDERPAANPQQENISQNPQHEDDHKSPSWISENPLAANENVSPGIPSAEEQLSSIAKGVNGSSQAPTSGKYCRLCDIQFNNLSNFITHKKFYCSSHAAEHVK
modifications: left off: small tags and cut ends
For B1, the “reduction of cell migration” value (MDA MB 231 cells [1]) was “does not; also recorded: not observed”, the Akt phosphorylation (Akt) was “increased” and the “PI3K activation by IGF-1 stimulation” value (PI3K; 100 ng/ml IGF-1 30 min, FIG. 1C) was “did not inhibit PI3K activation”. For the same molecule, the PI3K activity (PI3K; without IGF-1 stimulation, FIG. 5A) was “did not inhibit PI3K activity”, the “effect on cell proliferation” value (MDA MB 231 cells [2]) was “did not influence the cell proliferation” and the “interaction with p85α” value (p85α) was “did not”.

Source: patent publication US20130116185A1, “PHOSPHATIDYLINOSITOL 3-KINASES ACTIVITY REGULATOR INCLUDING THE FIFTH ZINC FINGER DOMAIN OF FOG2” (SNU R&DB FOUNDATION, priority 2010, published 2013)
